Test results: the supplement of paper PMC10724198
± gives the standard deviation of the averaged measurements.

test system: Saccharomyces cerevisiae; experiment: protein stability index of tFT-peptide fusion (C-terminal peptide) (PSI (0-1 scale)); higher = more stable (slower turnover); conditions: genetic background: wild type; temperature: 30 C
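Also: PSI is a weighted mean of sequencing reads over stability bins, variants kept only with over 10 reads, mCherry proximal and sfGFP distal, peptide attached via GGGS linker.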

RPLLIYSPFPLF and RPLNLPPPPAPF are within error of each other in protein stability index: 0.662 ± 0.075 for the first, 0.659 ± 0.072 for the second.

First: RPLPPLPRPPSP
Second: RPPFSPPSDLPL
The protein stability index of the first is lower: 0.557 ± 0.02 for the first, 0.645 ± 0.025 for the second.

RPPGQVSEALEW and RPPHSNPPRLVI are within error of each other in protein stability index: 0.68961 ± 3.4e-05 for the first, 0.711 ± 0.045 for the second.

RPPLLSPTRTLP and RPPPHLTPRVSL are within error of each other in protein stability index: 0.707 ± 0.15 for the first, 0.689 ± 0.047 for the second.

RPPPHYPHHTAS and RPPPPPPPSPHL are within error of each other in protein stability index: 0.673 ± 0.018 for the first, 0.692 ± 0.041 for the second.

RPPPPRLTPPRL and RPPSLSPAPAPP are within error of each other in protein stability index: 0.756 ± 0.084 for the first, 0.73 ± 0.027 for the second.

First: RPPVGTPPLPHS
Second: RPQARAQRRQAC
The protein stability index of the first is higher: 0.66 ± 0.0091 for the first, 0.583 ± 0.034 for the second.

RPRKTVTDLMAG and RPRNRRGGRGDE are within error of each other in protein stability index: 0.663 ± 0.01 for the first, 0.672 ± 0.0062 for the second.

RPSLPPRSPPPS and RPSPMPTATPAT are within error of each other in protein stability index: 0.767 ± 0.069 for the first, 0.701 ± 0.029 for the second.

RPSPPPTPPGPH and RPSPVLRASHPP are within error of each other in protein stability index: 0.656 ± 0.039 for the first, 0.638 ± 0.0099 for the second.

Going from RPSRPPPRLLFA to RPTPSHRTPSIG, the protein stability index rises from 0.644 ± 0.03 to 0.723 ± 0.016.

RPVQRLVPLTPR and RPVRLLPCVCHF are within error of each other in protein stability index: 0.706 ± 0.054 for the first, 0.679 ± 0.017 for the second.

RQANQVSTSAEN and RQLPMHLTSPGT are within error of each other in protein stability index: 0.726 ± 0.11 for the first, 0.66 ± 0.021 for the second.

Going from RQSDPFCCSTHP to RQTTTPHDRDGR, the protein stability index falls from 0.7449 ± 0.0023 to 0.566 ± 0.049.

RQVERRARRDRV and RRAPASAFPHSP are within error of each other in protein stability index: 0.671 ± 0.055 for the first, 0.688 ± 0.06 for the second.

First: RRAPRQKLIPAK
Second: RRDRFSLRGFTE
The protein stability index of the first is lower: 0.6768 ± 0.0055 for the first, 0.701 ± 0.013 for the second.

RREASLGSYSFE and RREDWQEKRYGL are within error of each other in protein stability index: 0.69778 ± 0.00039 for the first, 0.761 ± 0.083 for the second.

RRERRKKTETDK and RRGAVHWKQFTR are within error of each other in protein stability index: 0.7348 ± 0.0073 for the first, 0.732 ± 0.072 for the second.

First: RRGAVWDLVGDG
Second: RRGDMSEGEREE
The protein stability index of the first is lower: 0.571 ± 0.029 for the first, 0.672 ± 0.052 for the second.

Compared with RRGVPIKKPRYF, RRGYLVPLPSHA is higher in protein stability index: 0.539 ± 0.029 for the first, 0.669 ± 0.039 for the second.

RRHGTDEHKTAD and RRKGRKTSMRNG are within error of each other in protein stability index: 0.674 ± 0.016 for the first, 0.667 ± 0.048 for the second.

Going from RRKRKQQNTTTE to RRKRQKEGEIRE, the protein stability index rises from 0.685 ± 0.016 to 0.7362 ± 0.0064.

Going from RRLATRMGPCDA to RRLGVACCVVEG, the protein stability index falls from 0.682 ± 0.011 to 0.599 ± 0.0061.

RRLLERSIKRSE and RRLSRPPNLSRH are within error of each other in protein stability index: 0.696 ± 0.016 for the first, 0.676 ± 0.021 for the second.

RRMCARRSAAIV and RRNSAGCRLDKM are within error of each other in protein stability index: 0.665 ± 0.046 for the first, 0.662 ± 0.09 for the second.

First: RRPHLLCSPARL
Second: RRREGGQGERGK
The protein stability index of the first is higher: 0.883 ± 0.012 for the first, 0.694 ± 0.087 for the second.

Compared with RRRGEREKRPRA, RRRLRSGYCCLV is higher in protein stability index: 0.653 ± 0.021 for the first, 0.6861 ± 0.00091 for the second.

Compared with RRRPNSSMYRVS, RRSAWCAALPGR is higher in protein stability index: 0.658 ± 0.015 for the first, 0.704 ± 0.0089 for the second.

RRSDTTQQSVSL and RRSHGLAGPKKG are within error of each other in protein stability index: 0.623 ± 0.077 for the first, 0.674 ± 0.05 for the second.

RRSVQLQSALFI and RRVPPGTPCGTR are within error of each other in protein stability index: 0.736 ± 0.069 for the first, 0.708 ± 0.073 for the second.

RRVTTSFWPLGS and RSARGQFRGISC are within error of each other in protein stability index: 0.671 ± 0.067 for the first, 0.739 ± 0.23 for the second.

Going from RSDGRWYAGGLG to RSDIANWFLCLS, the protein stability index rises from 0.737 ± 0.018 to 0.798 ± 0.037.

RSDPLPKTSAAY and RSGFTSSPLRSG are within error of each other in protein stability index: 0.644 ± 0.12 for the first, 0.681 ± 0.034 for the second.

RSGREFLLSSLI and RSGRSLVGREGG are within error of each other in protein stability index: 0.718 ± 0.084 for the first, 0.703 ± 0.059 for the second.

RSIQNLQENIIR and RSLGLVGWGFWG are within error of each other in protein stability index: 0.663 ± 0.073 for the first, 0.762 ± 0.12 for the second.

Going from RSMLRVELSGVA to RSPAPPAPPHLP, the protein stability index rises from 0.562 ± 0.031 to 0.7068 ± 0.0012.

RSPPPRAPPPSV and RSPPYRPPCLRP are within error of each other in protein stability index: 0.645 ± 0.06 for the first, 0.722 ± 0.02 for the second.

RSRAYDSLPADQ and RSRVLALSCRSA are within error of each other in protein stability index: 0.682 ± 0.058 for the first, 0.641 ± 0.029 for the second.

Compared with RSRYWRTHGKVN, RSSPAVPPSPRP is higher in protein stability index: 0.557 ± 0.028 for the first, 0.6918 ± 0.0066 for the second.

Compared with RSSPRCPPSPGH, RSSSGANLQTTL is lower in protein stability index: 0.7247 ± 0.0018 for the first, 0.6517 ± 0.0031 for the second.

Going from RSTLGLAPPQSG to RSTPPHAHRSPP, the protein stability index rises from 0.67 ± 0.029 to 0.716 ± 0.015.

First: RSVPHPGGPSPC
Second: RSVPLLFPSLFL
The protein stability index of the first is lower: 0.649 ± 0.037 for the first, 0.72 ± 0.027 for the second.

RSVQSATSHGYQ and RSYFGLACPSVS are within error of each other in protein stability index: 0.749 ± 0.15 for the first, 0.626 ± 0.03 for the second.

RSYGVGYEGDKG and RTAEGRVRGRPR are within error of each other in protein stability index: 0.719 ± 0.054 for the first, 0.689 ± 0.067 for the second.

Compared with RTASRSVSTTQN, RTGAPSGEACCA is lower in protein stability index: 0.745 ± 0.024 for the first, 0.676 ± 0.026 for the second.

RTGRTCADRPTP and RTGVTKYSETLI are within error of each other in protein stability index: 0.757 ± 0.043 for the first, 0.677 ± 0.091 for the second.

First: RTIPSPDVRTRD
Second: RTKTQGKKRRQN
The protein stability index of the first is higher: 0.77 ± 0.011 for the first, 0.57 ± 0.032 for the second.

RTPRGCSLAYRA and RTRKYEDKSARM are within error of each other in protein stability index: 0.72 ± 0.11 for the first, 0.688 ± 0.021 for the second.

First: RTRRPSRTRSAS
Second: RTTNHRLPQPPR
The protein stability index of the first is higher: 0.772 ± 0.072 for the first, 0.632 ± 0.063 for the second.

First: RVCPPPLRRLLS
Second: RVGERVEGGGVV
The protein stability index of the first is higher: 0.693 ± 0.081 for the first, 0.6085 ± 0.0034 for the second.

Going from RVGGVVRGERAR to RVGSRRGVVCLL, the protein stability index rises from 0.671 ± 0.01 to 0.7526 ± 0.0014.

RVGWCGGWRGGR and RVHEMSLGPIRL are within error of each other in protein stability index: 0.677 ± 0.059 for the first, 0.715 ± 0.036 for the second.

Going from RVHSRSYNVMLD to RVIEWHEEKLRV, the protein stability index rises from 0.6988 ± 0.00049 to 0.783 ± 0.017.

RVKNVDAVKKHK and RVLSVRFRIGRE are within error of each other in protein stability index: 0.635 ± 0.0088 for the first, 0.636 ± 0.061 for the second.

RVPLHSSTVFWL and RVPPAIPSRRAC are within error of each other in protein stability index: 0.7 ± 0.04 for the first, 0.682 ± 0.06 for the second.

RVPRYEKIVSSI and RVRRWGSSTLVG are within error of each other in protein stability index: 0.658 ± 0.013 for the first, 0.676 ± 0.041 for the second.

RVRWRSQRSMVV and RVSGSFSCVCES are within error of each other in protein stability index: 0.689 ± 0.025 for the first, 0.6814 ± 0.0054 for the second.

First: RVSIDIMNALGR
Second: RVSPWSDLSAFL
The protein stability index of the first is lower: 0.627 ± 0.033 for the first, 0.745 ± 0.045 for the second.

RVVGGRDVRGGG and RWFQSSDVVDRQ are within error of each other in protein stability index: 0.737 ± 0.049 for the first, 0.703 ± 0.086 for the second.

Compared with RWGGWGYRGGVP, RWRECVVWGVWG is lower in protein stability index: 0.752 ± 0.062 for the first, 0.663 ± 0.0096 for the second.

Going from RWRRGGRRAPWP to RWSCLADQSANR, the protein stability index rises from 0.62 ± 0.012 to 0.7052 ± 0.0051.

RWWRLRSGGGRR and RYHLHFIGDVGF are within error of each other in protein stability index: 0.707 ± 0.017 for the first, 0.6974 ± 0.0042 for the second.

Compared with SAGPNCVWSSYN, SAIGVGGVGTGG is lower in protein stability index: 0.732 ± 0.0098 for the first, 0.633 ± 0.039 for the second.

SALFLVPRASWL and SALTSLAFGSFE are within error of each other in protein stability index: 0.659 ± 0.036 for the first, 0.704 ± 0.046 for the second.

SAPPLPPPPPPP and SAPSAAPPRSHP are within error of each other in protein stability index: 0.682 ± 0.016 for the first, 0.708 ± 0.025 for the second.

Compared with SAPVPPSPPRPR, SAPYLSTTLSVK is lower in protein stability index: 0.8 ± 0.0089 for the first, 0.671 ± 0.011 for the second.

SAQGPVLFSTGP and SARFALSQAPPI are within error of each other in protein stability index: 0.716 ± 0.044 for the first, 0.814 ± 0.12 for the second.

Going from SARSAARRWVRR to SASGARVEARMH, the protein stability index falls from 0.694 ± 0.026 to 0.6435 ± 0.0017.

First: SASLPSPCPDFG
Second: SASSAHLDGACR
The protein stability index of the first is lower: 0.6703 ± 0.0021 for the first, 0.691 ± 0.0075 for the second.

Going from SASSFGTLYCYS to SASVARSRRCVR, the protein stability index falls from 0.6966 ± 0.0019 to 0.612 ± 0.057.

SASVLPSPLPPV and SATLRCASLSFC are within error of each other in protein stability index: 0.708 ± 0.028 for the first, 0.679 ± 0.014 for the second.

SATWQLPGYFLI and SCFCNFFRFCCI are within error of each other in protein stability index: 0.681 ± 0.04 for the first, 0.637 ± 0.029 for the second.

First: SCFFFSWIRGFC
Second: SCFRTLPGRWPF
The protein stability index of the first is lower: 0.598 ± 0.032 for the first, 0.793 ± 0.022 for the second.

SCLSLSGLPSPL and SCSGTIGVYENP are within error of each other in protein stability index: 0.677 ± 0.062 for the first, 0.684 ± 0.024 for the second.

SCSVAIFLLSSP and SCTPPLPFFTSF are within error of each other in protein stability index: 0.6848 ± 0.0025 for the first, 0.704 ± 0.028 for the second.

SCVSDAKMGGLG and SCVWVPGCGPSR are within error of each other in protein stability index: 0.655 ± 0.084 for the first, 0.679 ± 0.0072 for the second.

SDDGIRLLNQSF and SDVHGLSLSDVS are within error of each other in protein stability index: 0.59 ± 0.095 for the first, 0.632 ± 0.085 for the second.

SEAGSVMPIGLV and SEIKKNKLTVMK are within error of each other in protein stability index: 0.642 ± 0.082 for the first, 0.677 ± 0.016 for the second.

SEPPPPTPPPLP and SERKRMQRRVVY are within error of each other in protein stability index: 0.679 ± 0.18 for the first, 0.655 ± 0.021 for the second.

Going from SERVCHESCLVG to SESKMRKVEPKM, the protein stability index rises from 0.68 ± 0.047 to 0.7459 ± 0.00085.
